# In patent publication US20050074826A1 (published 2005):
# B1: CCX-CKR2, mouse (on E13 fetal liver cells) (receptor, UniProt P56485 1-362, looked up)
# chain: MDVHLFDYAEPGNYSDINWPCNSSDCIVVDTVQCPTMPNKNVLLYTLSFIYIFIFVIGMIANSVVVWVNIQAKTTGYDTHCYILNLAIADLWVVITIPVWVVSLVQHNQWPMGELTCKITHLIFSINLFGSIFFLACMSVDRYLSITYFTGTSSYKKKMVRRVVCILVWLLAFFVSLPDTYYLKTVTSASNNETYCRSFYPEHSIKEWLIGMELVSVILGFAVPFTIIAIFYFLLARAMSASGDQEKHSSRKIIFSYVVVFLVCWLPYHFVVLLDIFSILHYIPFTCQLENVLFTALHVTQCLSLVHCCVNPVLYSFINRNYRYELMKAFIFKYSAKTGLTKLIDASRVSETEYSALEQNTK
# notes: whole, on cells; also called SDF-1 receptor on E13 fetal liver cells
# B2: CXCR4, human (receptor, UniProt P61073 1-352, looked up)
# chain: MEGISIYTSDNYTEEMGSGDYDSMKEPCFREENANFNKIFLPTIYSIIFLTGIVGNGLVILVMGYQKKLRSMTDKYRLHLSVADLLFVITLPFWAVDAVANWYFGNFLCKAVHVIYTVNLYSSVLILAFISLDRYLAIVHATNSQRPRKLLAEKVVYVGVWIPALLLTIPDFIFANVSEADDRYICDRFYPNDLWVVVFQFQHIMVGLILPGIVILSCYCIIISKLSHSKGHQKRKALKTTVILILAFFACWLPYYIGISIDSFILLEIIKQGCEFENTVHKWISITEALAFFHCCLNPILYAFLGAKFKTSAQHALTSVSRGSSLKILSKGKRGGHSSVSTESESSSFHSS
# notes: whole, on cells; also called CXCR4 on CEM-NKr cells; leukocyte CXCR4
# Columns and labels:
# CCX-CKR2 (RDC1), human [1] = biological target: T1, CCX-CKR2 (RDC1), human (human, UniProt P25106 1-362); experiment: homologous competition with 125I I-TAC on MCF-7 cells, medium alone
# T1 construct: also called CCX-CR2; SDF1 receptor on MCF-7 cells
# T1 sequence (P25106 whole entry): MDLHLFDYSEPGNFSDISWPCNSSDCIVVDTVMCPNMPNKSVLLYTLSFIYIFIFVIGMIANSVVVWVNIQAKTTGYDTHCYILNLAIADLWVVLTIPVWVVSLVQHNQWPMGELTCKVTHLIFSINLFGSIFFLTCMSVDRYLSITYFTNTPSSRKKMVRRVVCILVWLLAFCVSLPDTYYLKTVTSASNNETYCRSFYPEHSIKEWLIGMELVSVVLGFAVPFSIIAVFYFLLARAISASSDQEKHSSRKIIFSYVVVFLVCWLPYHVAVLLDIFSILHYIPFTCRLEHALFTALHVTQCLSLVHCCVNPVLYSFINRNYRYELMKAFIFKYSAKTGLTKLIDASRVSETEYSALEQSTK
# Description: (§1) Small molecules were included in some assays, where indicated. In these assays the compound was added to the plate to the indicated concentration followed by the addition of radiolabeled chemokine. All assays were then incubated for 3 hrs at 4° C. with gentle agitation. Following incubation in all binding assays, reactions were aspirated onto PEI-treated GF/B glass filters (Packard) using a cell harvester (Packard) and washed twice (25 mM HEPES, 500 mM NaCl, 1 mM CaCl₂, 5 mM MgCl₂, adjusted to pH 7.1). Scintillant (MicroScint 10, Packard) was added to the wells, and the filters were counted in a Packard Topcount scintillation counter. Data were analyzed and plotted using Prism (GraphPad Prism version 3.0a for Macintosh, GraphPad Software).
# [2] = biological target: B1; experiment: competition with radiolabeled human SDF-1 on mouse E13 fetal liver cells
# CXCR4, human = biological target: B2; experiment: dose response competition with 125I SDF-1α on CEM-NKr cells (CXCR4)
# Description: Binding Analysis. […] Small molecules were included in some assays, where indicated. In these assays the compound was added to the plate to the indicated concentration followed by the addition of radiolabeled chemokine. All assays were then incubated for 3 hrs at 4° C. with gentle agitation. Following incubation in all binding assays, reactions were aspirated onto PEI-treated GF/B glass filters (Packard) using a cell harvester (Packard) and washed twice (25 mM HEPES, 500 mM NaCl, 1 mM CaCl₂, 5 mM MgCl₂, adjusted to pH 7.1). Scintillant (MicroScint 10, Packard) was added to the wells, and the filters were counted in a Packard Topcount scintillation counter.
# human SDF-1α [3] = biological target: T2, human SDF-1α (human, UniProt P48061-2 22-89); experiment: radioligand binding on mouse E13 fetal liver cells
# T2 construct: also called hSDF-1α; SDF-1a
# T2 sequence (P48061 22-89 limits assumed): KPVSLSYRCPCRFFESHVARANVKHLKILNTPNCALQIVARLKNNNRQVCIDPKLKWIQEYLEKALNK
# human SDF-1α [4] = biological target: T2, human SDF-1α; experiment: DisplaceMax displacement of 125I SDF-1α on CEM-NKr cells (CXCR4)
# CCX-CKR2 (RDC1), human [5] = biological target: T1, CCX-CKR2 (RDC1), human; experiment: competition with 125I I-TAC on MCF-7 cells
# Description: as §1
binder,measurement,setting,value
"human I-TAC (ligand, UniProt O14625 22-94, looked up, also called hI-TAC; CXCL11) FPMFKRGRCLCIGPGVKAVKVADIEKASIMYPSNNCDKIEVIITLKENKGQRCLNPKSKQARLIIKKVERKNF",IC50,"CCX-CKR2 (RDC1), human [1]",1 nM
same,binding result,[2],binds
same,binding result,"CXCR4, human",no binding
B1,binding result,human SDF-1α [3],binds
B2,binding result,human SDF-1α [4],binds
"MIG (ligand, UniProt Q07325 23-125, looked up, also called monokine induced by gamma interferon; CXCR3 ligand MIG) TPVVRKGRCSCISTNQGTIHLQSLKDLKQFAPSPSCEKIEIIATLKNGVQTCLNPDSADVKELIKKWEKQVSQKKKQKNGKKHQKKKVLKVRKSQRSRQKKTT",binding result,"CCX-CKR2 (RDC1), human [5]",no binding
"mouse I-TAC (ligand, UniProt Q9JHH5 22-100, looked up, also called mI-TAC; I-TAC (mouse protein)) FLMFKQGRCLCIGPGMKAVKMAEIEKASVIYPSNGCDKVEVIVTMKAHKRQRCLDPRSKQARLIMQAIEKKNFLRRQNM",binding result,[2],binds
